From the supplement of paper PMC11780869

Tested on: Bacillus subtilis
Test: cleaved RNA product abundance (RNA/gDNA barcode ratio) relative to median wild-type variant (ratio to wild type); higher = more accumulation of the downstream cleavage product
Method: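 MPRA in B. subtilis. Mutagenized RNase Y cleavage-site regions (9% mutation rate) were inserted into a barcoded reporter mRNA (truncated aprE or tetM). Cells were grown in LB at 37°C to OD600 0.3. The cleaved RNA isoform was gel-purified and its barcodes counted; the RNA:gDNA barcode ratio was normalised to the median wild-type variant, and the median over barcodes is reported per variant. The printed sequence is the variable window only; the reporter flanks are not printed.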

[1] = experiment (reporter, strain, medium): exp 4a: truncated aprE reporter, strain BJT201 with 2% xylose (RNase J1 expressed), cleavage site: cggR-gapA (positions -7 to +36 mutated)
[2] = experiment (reporter, strain, medium): exp 2b: truncated aprE reporter, strain BJT200, cleavage site: cggR-gapA (positions -7 to +36 mutated)
[3] = experiment (reporter, strain, medium): exp 8a: truncated aprE reporter, strain BJT201 with 2% xylose (RNase J1 expressed), cleavage site: glnRA (positions -5 to +31 mutated)

| Sequence | cleaved RNA product abundance [1] | cleaved RNA product abundance [2] | further results |
| --- | --- | --- | --- |
| ACAGACGAAGGAGCCGCAAAGAAGTTATTAAGAGATGAATAATCCCTCAATCTAAATATCTCTCACTTATTTAAA | 0.0377 |  |  |
| ACAGACGAAGGAGCCGCAAAGAAGATATTAAGGGATGAATAATCCGTCAATATAAATATCTCTCACTTATTTAAA | 0.239 |  |  |
| ACAGACGAAGGAGCCGCAAAGAAGTTATTAAGGGATCATTAATCCCTCAATATAAATATCTCTCACTTATTTAAA | 1.08 |  |  |
| ACAGACGAAGGAGCCGCAAAGAAGTTATTAAAGGATGAATAATCACTCAATATAAATATCTCTCACTTATTTAAA | 0.14 | 0.0796 |  |
| ACAGACGAAGGAGCCGCAAAGAAGTAATTAAGAGATAAATAATCCCTCAATATAAATATCTCTCACTTATTTAAA | 0.123 |  |  |
| ACAGACGAAGGAGCCGCAAAGACGTTTTTAAGGGATGAATAATCCCTCAATATAAATATCTCTCACTTATTTAAA | 0.44 |  |  |
| ACAGACGAAGGAGCCGCAAAGAAGTTATTAAGGAATGAATAATTCCTCAATATAAATATCTCTCACTTATTTAAA | 0.872 | 0.756 |  |
| CGACATGTCCCGCTTCTTTCATTAATCGGTTAGCAACTGTTTTGCTATAAACATTTACCTTTTAAGAGGAGGAAT |  |  | cleaved RNA product abundance [3]: 0.876 |
| ACAGACGAAGGAGCCGCAAAGAAGTGATTAAGGGATGAATAATCCTTCAATATAAATATCTCTCACTTATTTAAA | 0.342 | 0.337 |  |
| ACAGACGAAGGAGCCGCAAAGATGTTATTAAGGGATGAATAATGCCTCAATATAAATATCTCTCACTTATTTAAA | 0.186 |  |  |
| ACAGACGAAGGAGCCGCAAAGAAGTTATTAAAGGATGAATAAACCCTCAATATAAATATCTCTCACTTATTTAAA | 0.101 | 0.115 |  |
| CGACATGTCCCGCTTCTTTCATTAATCCGTTAGCAACTGTTTTTCTGTATACATTTACCTTTTAAGAGGAGGAAT |  |  | cleaved RNA product abundance [3]: 0.357 |
| ACAGACGAAGGAGCCGCAAATAAGTTATTAAGGGATGAATAATCCGTCAATATAAATATCTCTCACTTATTTAAA | 0.299 |  |  |
| ACAGACGAAGGAGCCGCAAAGAAGTTATTAAGGGACGAATAATCCCTCAATATAAATCTCTCTCACTTATTTAAA | 0.53 |  |  |
| ACAGACGAAGGAGCCGCAAATAAGTTATTAAGGGATGATTAATCCCTCAATATAAATATCTCTCACTTATTTAAA | 0.697 | 0.783 |  |
| CGACATGTCCCGCTTCTTTCATTAATCCGTTAGCAACTGTTTTGCTACATACATTAACCTTTTAAGAGGAGGAAT |  |  | cleaved RNA product abundance [3]: 0.434 |
| CGACATGTCCCGCTTCTTTCATTAATCCGTTAGCAATTGTTTTGCTATATACATTTACCTTTTAAGAGGAGGAAT |  |  | cleaved RNA product abundance [3]: 1.24 |
| ACAGACGAAGGAGCCGCAAAGAAGTTATTAAGGGATGATTAATTCCTCAATATAAATATCTCTCACTTATTTAAA |  | 0.271 |  |
| ACAGACGAAGGAGCCGCAAAGAAGTTATTAAGGGATGAATAATGCCTCAATATAAATATCTCTCACTTATTTAAA | 0.17 | 0.129 | cleaved RNA product abundance (experiment (reporter, strain, medium): exp 6: tetM reporter, strain 168, cleavage site: cggR-gapA (positions -7 to +36 mutated)): 0.128 |
| ACAGACGAAGGAGCCGCAAAGAAGTTATTAAGGGAAGAATAATTCCTCAATATAAATATCTCTCACTTATTTAAA | 0.21 | 0.165 |  |
| CGACATGTCCCGCTTCTTTCATTATTCCGTCAGCAACTGTTTTGCTATATACATTTACCTTTTAAGAGGAGGAAT |  |  | cleaved RNA product abundance [3]: 0.502 |
| CGACATGTCCCGCTTCTTTCATTATTCCTTAAACAACTGTTTTGTAATATACATTATACCTTTAAGAGGAGGAAT |  |  | cleaved RNA product abundance [3]: 0.242 |
| ACAGACGAAGGAGCCGCCAAGAAGTTATTAAGGGATGAATAATCCCTCACTATAAATATCTCTCACTTATTTAAA |  | 0.191 |  |
| ACAGACGAAGGAGCCGCAAAGAAGTTATTAAGGGATGAACAATCCTTCAATATAAATATCTCTCACTTATTTAAA | 0.58 |  |  |
| ACAGACGAAGGAGCCGCAAAGAAGTTATTAAGAGATGAATAATCCCTCAATATAAATGTCTCTCACTTATTTAAA | 0.0916 |  |  |
| ACAGACGAAGGAGCCGCAAAGAAGTTATTAAGGGATCAATAATCCCTCAAAATAAATATCTCTCACTTATTTAAA | 0.315 | 0.214 |  |
| ACAGACGAAGGAGCCGCAAAGAAGTTATTAAGGGATGAATAATACTTCAATATAAATATCTCTCACTTATTTAAA | 0.111 | 0.094 |  |
| ACAGACGAAGGAGCCGCAAAAAAGTTATTAAGGGATGAATAATCCGTCAATATAAATATCTCTCACTTATTTAAA | 0.242 | 0.168 |  |
